Data on one molecule can be found in patent US20210284724A1 (I MAB BIOPHARMA US, published 2021).

The target of assay [1] is T1, human CXCL13 F20A (human, UniProt O43927 23-109).
T1 construct: mature; 87 residues fits the mature chain
T1 sequence (looked up): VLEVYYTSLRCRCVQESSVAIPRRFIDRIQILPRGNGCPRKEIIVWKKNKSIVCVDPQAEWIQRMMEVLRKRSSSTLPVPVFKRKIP
The experiment in a line: alanine scan, flow cytometry on transfected cells. As for the experimental part:
(§1) Cells were transfected with different WT construct or […] mutant construct which each amino acid was mutant to alanine, totally 87 amino acids. Then, binding of the test Fab to each mutant clone in the alanine scanning library was determined, in duplicate, by high-throughput flow cytometry. For each point, background fluorescence was subtracted from the raw data, which were then normalized to Fab reactivity with WT target protein. For each mutant clone, the mean binding value was plotted as a function of expression (represented by control reactivity). To identify preliminary primary critical clones (red circles), a threshold (dashed lines) of >70% WT binding to control Ab and <20% WT binding to test Fab was applied.
(§2) We draw the crystal structure diagram in the FIG. 8B, and the critical residues for 64C10G1 Fab binding were visualized and shown on this crystal structure.

For the next assay, the target named is T2, human CXCL13 R24A (human, UniProt O43927 23-109).
T2 construct: mature; 87 residues fits the mature chain
T2 sequence (looked up): T1 sequence (looked up) with A20F, R24A
The experiment in a line: alanine scan, flow cytometry on transfected cells. The protocol:
as §1, §2
In general terms: A flow cytometer gives signals particle by particle.

Another assay concerns the target T3, human CXCL13 F25A (human, UniProt O43927 23-109).
T3 construct: mature; 87 residues fits the mature chain
T3 sequence (looked up): T1 sequence (looked up) with A20F, F25A
The experiment in a line: alanine scan, flow cytometry on transfected cells. As for the experimental part: as §1, §2

Another assay has as its target T4, human CXCL13 P22A (human, UniProt O43927 23-109).
T4 construct: mature; 87 residues fits the mature chain
T4 sequence (looked up): T1 sequence (looked up) with A20F, P22A
The experiment in a line: alanine scan, flow cytometry on transfected cells. As for the experimental part: as §1, §2

For assay [2], the target named is T5, human CXCL13 (human, UniProt O43927 23-109).
T5 construct: also called huCXCL13; rhCXCL13
T5 sequence (looked up): T1 sequence (looked up) with A20F
Put plainly: ELISA binding, Fab. Background: ELISA stands for enzyme-linked immunosorbent assay.

The target in assay [3] is T5, human CXCL13. Put plainly: SPR Biacore 8K, Fab over immobilised CXCL13. The essentials: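 Surface plasmon resonance: CXCL13 amine-coupled to CM5 chip at ~250 RU, humanized Fabs injected at 0–20 nM, 30 μl/min, in HEPES-buffered saline with EDTA and Tween-20, pH 7.4. Dissociation 600 s; regeneration with glycine-HCl pH 2.0.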
(In SPR one partner is held on a chip, and binding of the other changes the refractive index at the surface.)

The target in assay [4] is T5, human CXCL13. The experiment in a line: SPR Biacore 8K, Fab over immobilised CXCL13. The protocol:
HuCXCL13 binding affinity by Surface Plasmon Resonance. 411A11E9, 415A3D1, 64C10G1, 21H12D9, 329F2E1, 71F4A3 were selected to produce Fab and tested binding affinity. The binding of the antibodies to huCXCL13 was examined by Biacore 8K. 10 mM HEPES, 150 mM NaCl, 3 mM EDTA, 0.05% Tween-20, pH 7.4 served as running buffer and 10 mM glycine-HCl, pH2.0 served as regeneration buffer. CXCL13 protein was immobilized on Sensor Chip CM5 using amine coupling method (immobilization level ˜30RU). The serial concentrations of Fab (0-16 nM) were injected over immobilized CXCL13 at the flow rate of 30 μl/min. The dissociation phases were 600s.
The source holds these as a separate data set.

Assay [5] concerns the target T5, human CXCL13. Put plainly: cell-based blocking assay, CXCL13 to CXCR5 cells. The essentials:
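To obtain IC50, a titration of humanized Fabs was tested against human CXCL13 binding to CHO-K1 cells expressing CXCR5. The cells (5×10⁴/well) were plated overnight at 37° C, fixed with 2% PFA and blocked with 1% BSA in PBST, then given 100 μl of Fab mixed with an equal volume of 0.3 μg/ml CXCL13 after a 30 min pre-incubation at room temperature. After 30 min on the cells and three PBST washes, bound CXCL13 was captured with 3 μg/ml human anti-CXCL13 antibody, detected with anti-human Fc-HRP and read at 450 nm.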

Assay [6] has as its target T1, human CXCL13 F20A. The experiment in a line: alanine scan, flow cytometry. As for the experimental part: as §1
Assay [7] has as its target T5, human CXCL13. The experiment in a line: SPR Biacore, off-rate ranking of Fabs.

Substitutions are numbered along the chain they refer to.

B1: 64C10G1 chimeric Fab (Fab, V domains shown)
VH: EVQLVESGGGLVKPGGSLKLSCAASGFTFSSYAMSWVRQTPEKRLEWVATISDGGSDAYYPDNVKGRFTISRDNAKNNLYLQMSHLKSEDTAMYYCARDYYGSGYEDSPMDYWGQGTSVTVSS
VL: DIQMTQSPSSLSASLGGKVTITCKASQDINKYIAWYQHKPGKGPRLLIHYTSTLQPGIPSRFSGSGSGRDYSFSISNLEPEDFATYYCLQYDNLYTFGGGTKLEIK
notes: Fab; also called 64C10G1 Fab
One may read the EC50 as the concentration that produces a half-maximal response. High values mean weaker potency, low ones greater potency. Usually Kd stands for a measure of binding affinity in units of concentration. The low end stands for higher affinity, the high end for lower affinity. The koff is a measure of how fast the partners let go of each other. A lower koff goes with slow dissociation. A word on the kon: it is the second-order rate constant of association. What is called IC50 is the concentration that inhibits the measured activity by half. Consider B1, for which the “Binding reactivity (% WT)” value with human CXCL13 F20A [1] was 9.4 % WT; with human CXCL13 R24A, -3.3 % WT; with human CXCL13 F25A, -3.2 % WT; in the assay with human CXCL13 P22A it was 14.8 % WT. In the assay with human CXCL13 [2], this molecule displayed a concentration giving a half-maximal response (EC50) of 1710 pM. The equilibrium dissociation constant (Kd) with human CXCL13 [3] came to 814 pM; with human CXCL13 [4], 178 pM; with human CXCL13 [7], 814 pM. Moreover, the off-rate (koff) with human CXCL13 [3] amounted to 0.00218 s⁻¹; with human CXCL13 [4] it was 0.0005 s⁻¹; in the assay with human CXCL13 [7], 0.00218 s⁻¹. The kon is 2.68e+06 M⁻¹ s⁻¹ in the assay with human CXCL13 [3], 2.81e+06 M⁻¹ s⁻¹ with human CXCL13 [4] and 2.68e+06 M⁻¹ s⁻¹ with human CXCL13 [7]. Moreover, half-maximal inhibition in the assay with human CXCL13 [5] (IC50) required 7220 pM. The binding result with human CXCL13 F20A [6] is “no binding (tested: <20% WT binding)”.
